This is an account of results in patent US20250099622A1, “COMPOSITIONS AND METHODS FOR EXPRESSING THERAPEUTICS” (priority 2022, published 2025).

One data set deals with T1, Human NPR-B (Homo sapiens, UniProt P20594).
T1 construct: purchased R&D system
T1 sequence (P20594 23-458 limits assumed): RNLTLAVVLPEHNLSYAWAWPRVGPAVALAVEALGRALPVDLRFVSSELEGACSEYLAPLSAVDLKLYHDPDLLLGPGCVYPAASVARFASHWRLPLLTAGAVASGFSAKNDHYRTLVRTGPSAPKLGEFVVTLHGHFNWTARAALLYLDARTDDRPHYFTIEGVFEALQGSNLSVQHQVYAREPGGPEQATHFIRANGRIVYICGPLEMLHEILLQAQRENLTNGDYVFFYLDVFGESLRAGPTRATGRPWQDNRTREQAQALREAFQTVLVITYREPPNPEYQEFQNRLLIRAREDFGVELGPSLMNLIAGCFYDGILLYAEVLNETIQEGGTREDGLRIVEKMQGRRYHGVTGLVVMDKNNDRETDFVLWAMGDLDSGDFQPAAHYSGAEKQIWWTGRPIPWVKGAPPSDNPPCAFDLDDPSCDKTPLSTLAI
Put plainly: Biacore SPR kinetic affinity binding to immobilized NPR-B. The note with it: Table 32 summary of affinity. The method, then: The biological function of these purified protein was assayed for their stimulation of production of cGMP, using NPR-B receptor positive cell line, NIH/3T3 and NPR-B negative cell line HEK293 cells. The determination of cGMP was assay by ELISA using commercial CNP as standard curves. […] Surface preparation. NBR-B was immobilized at different levels in three flow cells via standard amine coupling, leaving Fc 1 unmodified to serve as a reference. All surface plasmon resonance (SPR) analysis was performed on a BIAcore 3000 system using series CM5 sensor chips. Data processing and analysis were performed using BIAevaluation software. All sensorgrams were double referenced by subtracting the response on a reference flow cell and a blank sample. Human NPR-B (R&D system) was covalently attached to a CM5 chip via amine coupling. A surface density of 6600 RU was used for measurements with natriuretic peptides Sequential injections of CNP (0.5-8 nM) were performed at a flow rate of […] (300 s for each), followed by a dissociation time of 900 s. […] Kinetic parameters were calculated assuming a simple 1:1 (Langmuir) binding. […] All SPR analysis was performed on a BIAcore 3000 system using series CM5 sensor chips. Data processing and analysis were performed using BIAevaluation software. All sensorgrams were double referenced by subtracting the response on a reference flow cell and a blank sample. Human NPR-B (R&D system) was covalently attached to a CM5 chip via amine coupling. A surface density of 3100 RU was used for measurements with natriuretic peptides Sequential injections of AMI263 (FC4-CNP) (0.125-2 nM) were performed at a flow rate of […] (300 s for each), followed by a dissociation time of 900 s. […] Kinetic parameters were calculated assuming a simple 1:1 (Langmuir) binding. […] All SPR analysis was performed on a BIAcore 3000 system using series CM5 sensor chips. Data processing and analysis were performed using BIAevaluation software. All sensorgrams were double referenced by subtracting the response on a reference flow cell and a blank sample. Human NPR-B (R&D system) was covalently attached to a CM5 chip via amine coupling. […] Kinetic parameters were calculated assuming a simple 1:1 (Langmuir) binding. […] All SPR analysis was performed on a BIAcore 3000 system using series CM5 sensor chips. Data processing and analysis were performed using BIAevaluation software. All sensorgrams were double referenced by subtracting the response on a reference flow cell and a blank sample. Human NPR-B (R&D system) was covalently attached to a CM5 chip via amine coupling. A surface density of 3100 RU was used for measurements with natriuretic peptides Sequential injections of AMI263 (FC4-CNP) (0.5-300 nM) were performed at a flow rate of […] (300 s for each), followed by a dissociation time of 900 s. […] Kinetic parameters were calculated assuming a simple 1:1 (Langmuir) binding. […] All SPR analysis was performed on a BIAcore 3000 system using series CM5 sensor chips. Data processing and analysis were performed using BIAevaluation software. All sensorgrams were double referenced by subtracting the response on a reference flow cell and a blank sample. Human NPR-B (R&D system) was covalently attached to a CM5 chip via amine coupling.

The test system of data set [1] is NIH3T3 cells (cGMP secreted). Put plainly: EC50 for CNP-Fc constructs, cGMP ELISA of NIH3T3 supernatant. It is filed as cell-based. The note with it: NIH3T3, 30 minutes, 1.8 mM IBMX, cGMP secreted by the cells; FIG. 25B. The method, then: EC50 for CNP-Fc described herein were measured by ELISA. 2.5E+05 NIH3T3 cells/well were plated. […] After 30 minutes, supernatant was collected for cGMP determined via ELISA. FIG. 25A illustrates a standard curve of cGMP.

The test system of data set [2] is retinal ganglion cells (RGC). Put plainly: NMDA excitotoxicity mouse model: RGC count by retinal Flatmount. The note with it: AAV 4E+8 vg/eye IVT 28 days prior to NMDA. It is filed as in vivo, C57BL/6).
Protocol: This study was for evaluating the effect of adeno-associated viral (AAV) vectors on retinal ganglion cell protection following damage caused via N-methyl-D-aspartate (NMDA) administration in the mouse. […] Groups 7 and 8 were added to test a higher concentration of MK-801. […] This study was conducted in wild type mice (Mus musculus, C57BL/6).
300 μL of the 5 mM NMDA stock was combined with 300 μL of sterile PBS and 1 μL as injected on Day 0 for a final concentration of 2.5 mM NMDA.
300 μL of the 5 mM NMDA stock as combined with 300 μL of sterile-filtered MK-801 and 1 μL was injected on Day 0 for a final concentration of 2.5 mM NMDA/100 μM MK-801.
300 μL of the 5 mM NMDA stock was combined with 300 μL of sterile PBS and 1 μL was injected on Day 0 for a final concentration of 2.5 mM NMDA.
On Day −28 or Day 0 based on the experimental design, mice were given buprenorphine 0.01-0.05 mg/kg subcutaneously (SQ). Animals were then tranquilized for the intravitreal injections with ketamine/xylazine or inhaled isoflurane and one drop of 0.5% proparacaine HCl was applied to both eyes. The conjunctiva was gently grasped with Dumont #4 forceps, and the injection was made using a 33 G needle and a Hamilton syringe. After dispensing the syringe contents, the syringe needle was slowly withdrawn. Following the injection procedure, 1 drop of Ofloxacin ophthalmic solution was applied topically to the ocular surface with eye lube.
Eyes were enucleated and immediately fixed in 4% paraformaldehyde in phosphate-buffered saline (PBS) and stored overnight at 4° C. The following day, the eyes were transferred to cold immunocytochemistry (ICC) buffer (PBS containing 0.5% BSA and 0.2% Tween 20) until processing. Using a dissecting microscope, the eye was carefully trimmed of extraneous tissue at the limbus and, using fine curved scissors, the anterior chamber was removed. Retinas in the eye cup were rinsed with cold ICC buffer. Eye cups were placed in cold ICC buffer containing 1/100 rat anti-CNP36 (Groups 3-6 only; resuspended at 0.5 mg/mL in PBS) for 3 hours at 4° C. Eye cups were then washed extensively and stained with 1/200 donkey anti-rat Cy3 and 1/1,000 DAPI for 2-3 hours at 4° C. Groups 1 and 2 were stained with 1/500 TUJ-1 and 1/1000 DAPI, while Groups 7 and 8 were incubated with 1/1,000 DAPI alone. Eye cups were washed extensively but gently with cold ICC buffer. Using fine curved scissors and an eyelash knife, the retina was detached from the optic nerve head and removed from the RPE/choroid. Radial cuts were then made toward the center and retinas were flat mounted, covered, and sealed. 2D fluorescent microscopy images were acquired using an Olympus Bx63 upright fluorescent microscope. […] Images at 20× were acquired in 4 quadrants and a central 248.1×325.7 μm region was analyzed for RGC counts using Olympus cellSens and ImageJ software.
Groups 1 and 2 were stained with DAPI and TUJ-1 and images were captured at 20× (FIG. 10A). RGCs were counted in four quadrants, and cells/mm2 were averaged across each group.
Groups 3-8 were stained for DAPI and four images were captured for each retina at 20× approximately 600 μm from the optic nerve head. RGCs were counted in a central 248.1×325.7 μm region and cells/mm2 were averaged over each group (FIG. 10C).
The statistical analyses were performed on the Group 3-8 RGC data (one-way ANOVA followed by multiple comparisons using the Dunnett statistical hypothesis comparison).
Data set [3] in a line: NMDA mouse study: in-house CNP36-Fc ELISA of ocular (whole globe) and serum samples.
Protocol: Animals in Groups 3-6 had terminal blood collected on Day 7. IBMX was used during blood collection to inhibit phosphodiesterase activity. […] Briefly, each syringe for cardiac puncture was pre-rinsed with a stock solution of 10 mM IBMX prior to drawing blood. All mice were sedated to a deep plane of sedation under isoflurane and euthanized via exsanguination. After each syringe was pre-rinsed with 10 mM IBMX, a 25 G needle was inserted into the heart and the animal was exsanguinated and euthanized, and blood was collected. The volume of blood collected was noted on the paperwork and the appropriate volume of IBMX was added into a 1.5 mL RNAse/DNAse-free microfuge tube. […]
Bioanalytical work and the accompanying analyses were performed at the conclusion of the study. […] Left eyes (OS) from all animals (n=8) in each group receiving the different AAV constructs were analyzed. […]
The CNP36 and CNP-Fc36 expression in ocular (whole globes) and serum samples was quantified using the commercial CNP36 ELISA kit and in-house CNP36-Fc ELISA (Example 2), respectively. […] After a 45 min incubation, plates were washed and CNP36-Fc was detected by the addition of 3,3′,5,5′-tetramethylbenzidine (TMB) substrate. The reaction was stopped by the addition of stop solution and the plate was read immediately at 450 nm along with the reference wavelength of 600 nm. […]

With “AMI088: purified fusion protein Fc1-(G4S)4-CNP36 (IgG1 Fc), SEQ ID NO: 133”, in the data set with Human NPR-B, the ka is 4.09E+07 and the kd is 2.96E−05. Moreover, in data set [1], the “EC50 values (rank order)” value was “CNP-22 ≡Fc4-CNP36>Aflibercept-Fc4-CNP36>Fc1-CNP36>>Fc4-CNP22”. The “RGC counts compared to sham AAV + NMDA group” value in data set [2] is given as “higher RGC counts”. In addition, the “CNP36-Fc expression in serum samples” value in data set [3] (Day 7 serum) is reported as “Neither CNP36-Fc nor CNP36 were expressed”. Also, the “stability of CNP36-Fc in ocular samples” value in data set [3] (mouse, in vivo) was “stable and thus quantifiable”.
